The chains are these.
B1: 242F5H2 (antibody, V domains shown)
VH: EVMLVESGGGLVKPGGSLKLSCAASGFTFSSYTVSWVRQTPEKRLEWVATSIVGSTYTYFPDSVKGRFTISRDFAKNTLFLQMSSLRSEDTAMYYCSRLGRGNAMDYWGQGTSVSVSS
VL: DIVMTQSPSSLTVTAGEKVTLNCRSSQSLLNSGNQKNYLTWYQQKPGQPPKLLIYWASTRESGVPDRFTGSGSGTDFTLTISSVQADDLAVYYCQNGYSYPFTFGSGTKLEIK
B2: 254A8D5 (antibody, V domains shown)
VH: EVMLVESGGGLVKPGGSLKLSCAASGFTFSSYTVSWVRQTPEKRLEWVATSIVGSTYTYFPDSVKGRFTISRDFAKNTLFLQMSSLRSEDTAMYYCSRLGRGNAMDYWGQGTSVSVSS
VL: DIVMTQSPSSLTVTAGEKVTLNCRSSQSLLNSGNQKNYLTWYQQKPGQPPKLLIYWASTRESGVPDRFTGSGSGTDFTLTISSVQADDLAVYYCQNGYSYPFTFGSGTKLEIK
B3: 234C9G5 (antibody, V domains shown)
VH: QAYLQQSGAELVRSGASVKMSCKASGYAFTSHNMHWVKQTPGQGLEWIGYISPGNGYTNYNQKFRGKATLTADTSSSTAYMQIGSLTSEDSAVYFCTRDYYGNSFAYWGQGTLVTVSA
VL: DIVMTQSPSSLTEKAGERVSMSCKSSQSLFNSGNQKNYLTWYQQKPGQPPKLLIYWASTRESGVPDRFTGSGSGTDFTLTISSVQAEDLAVYYCQNNYWFPFTFGAGTKLELK
B4: 252E7C9 (antibody, V domains shown)
VH: QTYLQQSGAELVRSGASVKMSCRTSGYSFTSHNMHWVKQTPGQGLEWIGYIYPGNGGSYYNQKFKGKAILTADTSSSTAYMQISSLTSEDSAVYFCTRDYYGNSFVYWGQGTLVTVSA
VL: DVVMTQSPSSLTEKTGEKVSMSCKSSQSLLNSGNQKNYLTWYQQKPGQPPKLLIYWASTRESGVPDRFTGSGSGTDFTLTISSLQTEDLAIYYCQNNFRYPFTFGAGTKLELK
B5: 256C3D3 (antibody, V domains shown)
VH: QAYLQQSGAELVRSGASVKMSCKASGYAFTSHNMHWVKQTPGQGLEWIGYISPGNGYTNYNQKFRGKATLTADTSSSTAYMQIGSLTSEDSAVYFCTRDYYGNSFAYWGQGTLVTVSA
VL: DIVMTQSPSSLTEKAGERVSMSCKSSQSLFNSGNQKNYLTWYQQKPGQPPKLLIYWASTRESGVPDRFTGSGSGTDFTLTISSVQAEDLAVYYCQNNYWFPFTFGAGTKLELK
B6: 243B4F2 (antibody, V domains shown)
VH: QAYLQQSGAELVRSGASVKMSCKASGYTFTSHNLHWVKQTPGQGLEWIGYIYPGNGNTNYNQKFKGKATLTADTSSSTAYMQISSLTSEDSAVYFCTRDYYGNSFAYWGQGTLVTVSA
VL: DIVMTQSPSSLTEKAGERVSMSCKSSQSLFNSGNQKNYLTWYQQKPGQPPKLLIYWASTRESGVPDRFTGSGSGTDFTLTISSVQAEDLAVYYCQNNYWFPFTFGAGTKLELK
B7: 234A10F7 (antibody, V domains shown)
VH: QVQLQQSGAELVKPGASVKLSCKASGYTFTSFGINWLRQRPEQGLEWIGWIFPGDGNSKYNENFKGKATLTTDKSSSTAYMQLTRLTSEDSAVYFCARFYYGNSFAYWGQGTLVTVSA
VL: DIVMTQSPSSLTVTTGQKVTMSCKSSQSLLNSGNQKNYLTWYQQKPGQPPKLLIYWAATRESGVPDRFTGSGSGTDFTLTISSVQAEDLAVYYCQNDYFYPFTFGAGTKLELK
B8: 186F7E10 (antibody, V domains shown)
VH: EVMLVESGGGLVKPGGSLKLSCAASRFTLNSYAMSWIRQTPEKKLEWVATITSGVSHTYYFDSVKGRFTISRDTAKNTLNLQMNSLRSEDTAVYYCARLYYGNSLDYWGQGTSVTVSS
VL: DIVMTQSPSSLTVTAGEKVTVSCKSSQSLLNSGNQKNYLTWYQQKPGQPPKLLIYWASTRESGVPDRFTGSGSGTDFTLTISSVQSEDLAVYYCQNNYIYPLTFGAGTTLELK
B9: 252F1B10 (antibody, V domains shown)
VH: QAYLQQSGAELVRSGASVKMSCKASGYTFTSHNMHWVKQTPGQGLEWIGYIYPGNGGTNYNQKFKGKATLTADTSSSTAYMQINSLTSEDSAVYFCTRDYYGNSFAYWGQGTLVTVSA
VL: DIVMTQSPSSLTEKAGERVSMSCKSSQSLFNSGNQKNYLTWYQQKPGQPPKLLIYWASTRESGVPDRFTGSGSGTDFTLTISSVQAEDLAVYYCQNDYRYPFTFGAGTKLELK
B10: 243F6D2 (antibody, V domains shown)
VH: QAYLQQSGAELVRSGASVKMSCRASGYTFTSHNMHWVKQTPGQGLEWIGYIYPGNGGTYYNQKFKGKATLTADTSSSTAYMQISSLTSEDSAVYFCARDYYGNSFVYWGQGTLVTVSA
VL: DVVMTQSPSSLTEKTGEKVSMSCKSSQSLLNSGNQKNYLTWYQQKPGQPPKLLIYWASTRESGVPDRFTGSGSGTDFTLTISSLQTEDLAVYYCQNNYRYPFTFGAGTKLELK
B11: 241H10A1 (antibody, V domains shown)
VH: QVQLQQSGAELVKPGASVKLSCKASGYTFTSFGINWLRQRPEQGLEWIGWIFPGDGNSKYNENFKGKATLTTDKSSSTAYMQVTRLTSEDSAVYFCARFYYGNSFANWGQGTLVTVSA
VL: DIVMTQSPSSLTVTAGEKVTMSCKSSQSLLNSGNQKNYLTWYQQKPGQPPKLLIYWAATRESGVPDRFTGSGSGTDFTLTISSVQAEDLAVYYCQNDYFYPFTFGGGTKLELK
B12: 234B9D4 (antibody, V domains shown)
VH: EIQLQQSGPDLMKPGSSVKISCTASGYSFTSYYIHWVKQSHGKTLEWIGYIDPFNGGTRYNQKFEGKAALTVDKSSTTAYMHLTSLTSDDSAVYYCASLRFFTYWGQGTLVTVSA
VL: DIVMTQSPSSLTVTAGEKVTMTCKSSQSLLNSGNQENYLTWYQQKPGQPPKLLISRASTRQSGVPDRFTGSGSGTDFTLTISSVQAEDLAVYYCQNDYSYPLTFGAGTKLELK
B13: 234E1F12 (antibody, V domains shown)
VH: QAYLQQSGAELVRSGASVKMSCKASGYTFTSHNMHWVKQTPRQGLEWIGYIYPGNGDTNYNQKFKGKATLTADTSSSTAYMQISSLTSEDSAVYFCTRDYYGNSFAYWGQGTLVTVSA
VL: DIVMTQSPSSLTEKAGERVSMSCKSSQSLFNSGNQKNYLTWYQQKPGQPPKLLIYWASTRESGVPDRFTGSGSGTDFTLTISSVQAEDLAVYYCQNAYWYPFTFGAGTKLELK
B14: 235A10C9 (antibody, V domains shown)
VH: QAYLQQSGAELVRSGASVKMSCKASGYTFASHNMHWVKQTPGQGLEWIGYIYPGNSGTKYNQKFTGKATLTADTSSSTAYMQITSLTSEDSAVYFCARDYYGNSFAYWGQGTLVTVSA
VL: DIVMTQSPSSLTEKAGEKVSMRCKSSQSLLNSGNQKNYLTWYQQKPGQPPKLLIYWASTRESGVPDRFTGSGSGTDFTLTISSVQADDLAVYYCQNDYMFPFTFGAGTKLELK
B15: 240D6F5 (antibody, V domains shown)
VH: QAYLQQSGAELVRSGASVKMSCKASGYTFTSHNMHWVKQTPGQGLEWIGYIYPGNGGTNYNQKFKGKATLTADPSSSTAYMQINSLTSEDSAVYFCTRDYYGNSFAYWGQGTLVTVSA
VL: DIVMTQSPSSLTEKAGERVSMSCKSSQSLFNSGNQKNYLTWYQQKPGQPPKLLIYWASTRESGVPDRFTGSGSGTDFTLTISSVQAEDLAVYYCQNDYRYPFTFGAGTKLELK
B16: 240A8E7 (antibody, V domains shown)
VH: QAYLQQSGAELVRSGASVKMSCKASGYTFTNYNIHWVKQTPGQGLEWIGYIYPGNGDNYYNQKFKGKATLTADTSSSTAYMQISSLTSEDSAVYFCARDYYGNSFAYWGQGTLVTVSA
VL: DVVMTQSPSSLTVTAGEKVTMNCKSSQSLLNSGNQKNYLTWYQQKPGQPPKMLIYWASTRESGVPDRFTGSGSGTDFTLTISSVQAEDLAIYYCQNDYYYPFTFGAGTKLELK
B17: 246B5F2 (antibody, IgM, V domains shown)
VH: EVMLVESGGGLMKPGGSLKLSCAASEFTFSNYAMSWVRQTPEKRLEWVATISSGRSSTYYPDSVKGRFTISRDNAKNTLYLQMSSLRSEDTAMYYCAGLGRGNAMEYWGQGTSVTVSS
VL: DIVMTQSPSSLTVTAGEKVTLSCKSSQSLLNSGNQKNYLTWYQQKPGQPPKLLIYWASTRESGVPDRFTGSGSGTDFILTINSVQAEDLAVYYCQNAYSYPFTFGSGTKLEIK
B18: 242H12D6 (antibody, V domains shown)
VH: QAYLQQSGAELVRSGASVKMSCKASGYTFTSHNMHWVKQTPGQGLEWIGYIYPGNGGTNYNQKFKGKATLTADTSSSTAYMQINSLTSEDSAVYFCTRDYYGNSFAYWGQGTLVTVSA
VL: DIVMTQSPSSLTEKAGERVSMSCKSSQSLFNSGNQKNYLTWYQQKPGQPPKLLIYWASTRESGVPDRFTGSGSGTDFTLTISSVQAEDLAVYYCQNDYRYPFTFGAGTKLELK
B19: 252C10F6 (antibody, V domains shown)
VH: QVHLKQSGRGLVQPSQSLSITCTVSGFSLPNYGVHWVRQPPGKGLEWLGVIWSGGNTDYNTVFKARLSITKDNSKSQVFFKMNSLQADDTAIYYCARNLYGNYDYAMDYWGQGTSVTVSS
VL: DIVMTQSPATLSVTPGDRVSLSCRASQSISDYLHWYQQKSHESPRLLIKYASQSISGIPSRFSGSGSGSEFTLSINSVEPEDVGVYYCQNGHSFPFTFGSGTKLEIK
B20: 248E6A7 (antibody, V domains shown)
VH: QAYLQQSGAELVRSGASVKMSCRASGYTFTSHNMHWVKQTPGQGLEWIGYIYPGNGNTYYNQKFKVKATLTADTSSNTAYMQINSLTSEDSAVYFCVRDYYGNSFVYWGQGTLVTVSA
VL: DVVMTQSPSSLTEKTGEKVTMTCKSSQSLLNSGNQKNYLAWYQQKPGQPPKLLIYWASTRESGVPDRFIGSGSGTDFTLTISSLQTEDLAVYYCQNNYMYPFTFGAGTKLELK
B21: 185F2G12 (antibody, V domains shown)
VH: QAYLQQSGAELVRSGASVKMSCKASGYTFTSYNMHWVRQTPGQGLEWIGYIYPGNGGTNYSQKFKGKASLTADTSSTTAYMQISSLTSEDSAVYFCATGRGFAYWGQGTLVTVSA
VL: DIVMTQSPSSLTVTAGEKVTLSCKSSQSLFNTGNQKNYLTWYQQKPGQPPKLLIFRASTRESGVPDRFTGSGFGTDFTLTISSVQAEDLAVYYCQNDFSYPLTFGAGTKLELK

For the experiment, the target named is Claudin18.2-His protein (human). Kind of experiment: indirect ELISA on coated Claudin18.2-His. On the technique in general: In an ELISA, binding on a coated surface is turned into a signal by an enzyme label.
With B1, the EC50 came to 0.0193 µg/mL.
Molecule B2 came in with an EC50 of 0.0252 µg/mL. The EC50 values of the last two molecules are within 1.5-fold of each other.
Take B3: the EC50 was 0.0387 µg/mL.
As for B4, the EC50 was 0.00869 µg/mL.
To B5 belongs 0.0133 µg/mL; to B6, 0.0125 µg/mL; to B7, 0.0268 µg/mL.
To B8 belongs 0.0109 µg/mL; to B9, 0.00723 µg/mL.
To B10 belongs 0.0346 µg/mL.
B11 showed an EC50 of 0.0221 µg/mL.
To B12 belongs 0.0405 µg/mL; to B13, 0.105 µg/mL.
B14 showed an EC50 of 0.0355 µg/mL.
Under B15 stands 0.00792 µg/mL; under B16, 0.0145 µg/mL; under B17, 0.141 µg/mL.
Consider B18, for which the EC50 is 0.0164 µg/mL.
Regarding B19, the concentration giving a half-maximal response (EC50) was 1.66 µg/mL.
The molecule B20 registered an EC50 of 0.00969 µg/mL.
In turn, B21 registered an EC50 of 0.0193 µg/mL.

By EC50 is commonly meant the concentration needed to bring the measured effect to its halfway point.
